Source: US20160320385A1

Key:
[1] = target: monoclonal antibody (moAb) G12; assay: competitive ELISA with G12-HRP on a plate coated with Sigma gliadin
[2] = target: 33-mer peptide from alpha-2 gliadin; assay: immunochromatographic strips based on G12 moAb (GlutenTox stick); untreated 33-mer peptide
[3] = target: PWG gliadin (intact, undigested) (wheat); assay: immunochromatographic strips based on G12 moAb (GlutenTox stick); gliadin
[4] = target: PWG gliadin after gastric and intestinal digestion (pepsin, then trypsin and chymotrypsin); assay: immunochromatographic strips based on G12 moAb (GlutenTox stick); hydrolyzed gliadin
[5] = target: 33-mer peptide from alpha-2 gliadin; assay: immunochromatographic strips based on G12 moAb (GlutenTox stick); 33-mer peptide after digestion

Sequence of 33-mer peptide from alpha-2 gliadin (peptide, as listed by the source): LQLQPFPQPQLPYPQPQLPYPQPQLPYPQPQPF

concentration of 33-mer (33-mer equivalents) [1] | Substance | detection limit [2] | detection limit [3] | detection limit [4] | detection limit [5]
21.6 ng 33-mer/µg | PWG gliadin (intact, undigested) |  |  |  | 
7.5 ng 33-mer/µg | PWG gliadin after gastric and intestinal digestion (pepsin, then trypsin and chymotrypsin) |  |  |  | 
24.5 ng 33-mer/ng | PWG gliadin after gastric digestion (pepsin) |  |  |  | 
 | monoclonal antibody (moAb) G12 | 0.5 ng/mL | 30 ng/mL | 50 ng/mL | 0.5 ng/mL
